Measurements from patent US20220267469A1 (LIPUM, published 2022).

B1: Human BSSL (bile salt-stimulated lipase), native (enzyme)
chain: AKLGAVYTEGGFVEGVNKKLGLLGDSVDIFKGIPFAAPTKALENPQPHPGWQGTLKAKNFKKRCLQATITQDSTYGDEDCLYLNIWVPQGRKQVSRDLPVMIWIYGGAFLMGSGHGANFLNNYLYDGEEIATRGNVIVVTFNYRVGPLGFLSTGDANLPGNYGLRDQHMAIAWVKRNIAAFGGDPNNITLFGESAGGASVSLQTLSPYNKGLIRRAISQSGVALSPWVIQKNPLFWAKKVAEKVGCPVGDAARMAQCLKVTDPRALTLAYKVPLAGLEYPMLHYVGFVPVIDGDFIPADPINLYANAADIDYIAGTNNMDGHIFASIDMPAINKGNKKVTEEDFYKLVSEFTITKGLRGAKTTFDVYTESWAQDPSQENKKKTVVDFETDVLFLVPTEIALAQHRANAKSAKTYAYLFSHPSRMPVYPKWVGADHADDIQYVFGKPFATPTGYRPQDRTVSKAMIAYWTNFAKTGDPNMGDSAVPTHWEPYTTENSGYLEITKKMGSSSMKRSLRTNFLRYWTLTYLALPTVTDQEATPVPPTGDSEATPVPPTGDSETAPVPPTGDSGAPPVPPTGDSGAPPVPPTGDSGAPPVPPTGDSGAPPVPPTGDSGAPPVPPTGDSGAPPVPPTGDSGAPPVPPTGDAGPPPVPPTGDSGAPPVPPTGDSGAPPVTPTGDSETAPVPPTGDSGAPPVPPTGDSEAAPVPPTDDSKEAQMPAVIRF
notes: Native full-length protein purified from human milk (Astra Hässle AB); also called hBSSL; non-biotinylated human BSSL
B2: S-SL048-106 hIgG4 S228P (antibody, V domains shown)
VH: QVQLVQSGAEVKKPGASVKVSCKASGYTFTSYNMHWVRQAPGQGLEWIGVIYPGDGSTSYNQKFQGRVTMTRDTSTSTVYMELSSLRSEDTAVYYCARDYYGSSPLGYWGQGTLVTVSS
VL: DIQMTQSPSSLSASVGDRVTITCSASSSISYMNWYQQKPGKAPKLLIYATSKLPSGVPSRFSGSGSGTDFTLTISSLQPEDFATYYCHQRSSTPTFGQGTKLEIKR
notes: also called mAb106
B3: AS20 hIgG1 LALA-PG (antibody)
heavy: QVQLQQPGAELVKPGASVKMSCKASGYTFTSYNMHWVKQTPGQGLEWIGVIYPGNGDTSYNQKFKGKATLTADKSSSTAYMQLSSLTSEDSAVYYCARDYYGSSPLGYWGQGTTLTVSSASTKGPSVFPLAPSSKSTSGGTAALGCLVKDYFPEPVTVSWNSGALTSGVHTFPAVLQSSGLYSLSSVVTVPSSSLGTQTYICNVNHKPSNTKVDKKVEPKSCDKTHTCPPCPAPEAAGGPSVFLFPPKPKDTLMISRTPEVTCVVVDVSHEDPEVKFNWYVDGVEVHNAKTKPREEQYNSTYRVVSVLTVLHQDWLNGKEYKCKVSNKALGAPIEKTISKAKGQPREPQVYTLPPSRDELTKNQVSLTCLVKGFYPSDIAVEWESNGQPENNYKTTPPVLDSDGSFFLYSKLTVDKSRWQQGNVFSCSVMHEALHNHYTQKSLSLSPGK
light: QIVLTQSPAVMSASPGEKVTMTCSASSSISYMHWYQQKPGTSPKRWIYDTSKLASGVPARFSGSGSGTSYSLTISSMEAEDAATYYCHQRSSYPTFGGGTKLEIKRTVAAPSVFIFPPSDEQLKSGTASVVCLLNNFYPREAKVQWKVDNALQSGNSQESVTEQDSKDSTYSLSSTLTLSKADYEKHKVYACEVTHQGLSSPVTKSFNRGEC
notes: also called AS20 IgG1 LALA-PG
B4: Mouse BSSL, recombinant (enzyme)
chain: AKLGAVYTEGGFVEGVNKKLSLLGGDSVDIFKGIPFATAKTLENPQRHPGWQGTLKATNFKKRCLQATITQDNTYGQEDCLYLNIWVPQGRKQVSHNLPVMVWIYGGAFLMGSGQGANFLKNYLYDGEEIATRGNVIVVTFNYRVGPLGFLSTGDANLPGNFGLRDQHMAIAWVKRNIAAFGGDPDNITIFGESAGAASVSLQTLSPYNKGLIRRAISQSGMALSPWAIQKNPLFWAKTIAKKVGCPTEDTGKMAACLKITDPRALTLAYKLPVKKQEYPVVHYLAFIPVIDGDFIPDDPINLYNNTADIDYIAGINNMDGHLFATIDVPAVDKTKQTVTEEDFYRLVSGHTVAKGLKGAQATFDIYTESWAQDPSQENMKKTVVAFETDVLFLIPTEIALAQHKAHAKSAKTYSYLFSHPSRMPIYPKWMGADHADDLQYVFGKPFATPLGYRPQDRAVSKAMIAYWTNFARSGDPNMGNSPVPTHWYPYTLENGNYLDITKTITSASMKEHLREKFLKFWAVTFEVLPTVTGDQDTLTPPEDDSEVAPDPPSDDSQVVPVPPTDDSVEAQMPATIGF
notes: Bought (R&D Systems, Cat. no 5658-CE); also called mBSSL; murine BSSL

Key:
AS20 scFv = experiment: HTRF competition against 5 nM b-hBSSL for 2.5 nM AS20 scFv
Method: In order to study the interaction between AS20 scFv and native mouse BSSL, a competition assay was developed. Detection of binding was enabled through donor molecule terbium-conjugated α-FLAG antibody (Cisbio #611FG2TL), which interacts with the C-terminal located FLAG-tag of the scFv, and acceptor molecule streptavidin-conjugated XL665 (Cisbio #610SAXL), which interacts with the biotin-moieties on human BSSL.
2.5 nM of AS20 scFv was pre-incubated for 2 hours with the mouse or human orthologue of BSSL, after which 5 nM b-hBSSL and the FRET donor and acceptor molecules were added. The mixture was finally incubated at room temperature for 16 hours and the binding signal (665 nm) and background/noise signal (615 nm) was measured using EnVision (PerkinElmer). The experimental output, Delta R, was calculated for each point using four replicates and two blanks.

[1] = molecular target: B1; experiment: cell-based or functional assay
[2] = molecular target: B1; experiment: SPR single cycle kinetics, hIgG4 S228P captured by anti-Fab
Procedure, shortened: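 hIgG4 S228P captured on an immobilized anti-Fab surface; five BSSL concentrations injected, 1:5 dilutions from 50 nM (human) or from 500 nM (mouse). Human BSSL: single-cycle kinetics, 1:1 fit. Mouse BSSL: KD from steady-state equilibrium response versus concentration. Regeneration with 10 mM glycine-HCl pH 2.1.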

Biotinylated human BSSL [3] = molecular target: T1, Biotinylated human BSSL (human, UniProt P19835 21-753, Biotinylated on glycosacarides, 30-40 biotin/BSSL); experiment: flow cytometry displacement assay; 3.0 ug antibody, 1 ug b-hBSSL
T1 construct: hBSSL biotinylated in house; also called b-hBSSL; human BSSL-biotin
T1 sequence: B1 chain
Procedure, shortened: (§1)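 Antibody (0.5–3.0 μg per reaction) preincubated with 1 μg biotinylated human BSSL in PBS pH 7.4, 30 min at 4 °C, then with human buffy coat 30 min at 4 °C. After erythrocyte lysis/fixation, bound BSSL on CD14+ monocytes detected by labelled streptavidin via flow cytometry.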

[4] = molecular target: B1; experiment: SPR single cycle kinetics, captured by anti-Fab, Absolute Antibody batch
Method: Kinetic parameters of the hIgG4 S228P clones were determined by SPR using BIACORE® T200 (GE Healthcare). An anti-Fab antibody (GE #28958325) was immobilized on a CM5 S sensor chip by primary amine coupling using NHS-EDC chemistry. The hIgG4 antibodies were captured by the anti-Fab antibody, and subsequently, five different concentrations of hBSSL (1:5 dilutions, 0.08-50 nM) or mBSSL (1:2 dilutions, 50-800 nM) were injected over the surface. The sensor chip surface was regenerated with 10 mM glycine-HCl pH 2.1. For binding to human BSSL, single cycle kinetic data was fitted to a 1:1 binding model and kinetic parameters were retrieved using software BlAevaluation. For mouse BSSL, a steady state analysis was performed by plotting the response level at equilibrium against each concentration, and KD values were retrieved by the BlAevalution software.

[5] = molecular target: B1; experiment: cell-based or functional assay; remark: listed apart in the source
Mouse BSSL, recombinant [6] = molecular target: B4; experiment: SPR steady state, hIgG4 S228P captured by anti-Fab; in-house production batch (Example 9); Table 12 marks this value # as unreliable
Method: Kinetic parameters of the hIgG4 S228P clones were determined by SPR using BIACORE® T200 (GE Healthcare). Single cycle kinetics was used to measure the affinity of the purified hIgG4 molecules to human and mouse BSSL. An anti-Fab antibody (GE Healthcare, #28958325) was immobilized on a CM5 S sensor chip by primary amine coupling using NHS-EDC chemistry. hIgG4 was captured by the anti-Fab antibody, and subsequently, five different concentrations of hBSSL (1:5 dilutions starting from 50 nM) or mBSSL (1:5 dilutions starting from 500 nM) were injected over the surface. The sensor chip surface was regenerated with 10 mM glycine-HCl pH 2.1. For binding to human BSSL, single cycle kinetic data was fitted to a 1:1 binding model and kinetic parameters were retrieved using software BlAevaluation. For mouse BSSL, a steady state analysis was performed by plotting the response level at equilibrium against each concentration, and KD values were retrieved by the BlAevalution software.

Biotinylated human BSSL [7] = molecular target: T1, Biotinylated human BSSL; experiment: flow cytometry displacement assay; 1.5 ug antibody, 1 ug b-hBSSL
Procedure, shortened: as §1

Mouse BSSL, recombinant [8] = molecular target: B4; experiment: SPR steady state, antibody immobilised
Method: (§2) Single cycle kinetics was used to measure the affinity of the antibodies. AS20 hIgG1 LALA-PG and anti-NP hIgG1 LALA-PG were immobilized on a CM5 S sensor chip by primary amine coupling using NHS-EDC chemistry. Five different concentrations of antigen (1:3 dilutions starting from 50 nM for hBSSL and 1:2 dilutions starting from 800 nM for mBSSL) were injected over the surface. The sensor chip surface was regenerated with 10 mM glycine-HCl pH 2.1. Obtained single cycle kinetic data was fitted to a Langmuir 1:1 binding model and kinetic parameters were retrieved using the software BlAevaluation. For mBSSL, a steady state analysis was also performed by plotting the response level at equilibrium against each concentration, and KD values were retrieved by the BlAevalution software.

[9] = molecular target: B1; experiment: SPR single cycle kinetics, antibody immobilised
Method: as §2
A single cycle kinetic SPR approach was used to determine the affinity of the IgG.

B1
IC50 (AS20 scFv): ~2 nM

B2
BSSL hydrolysis of cholesterol esters, relative value (no antibody = 100%); 0.19 ug antibody [1]: 94.8%
BSSL hydrolysis of cholesterol esters, relative value (no antibody = 100%); 0.38 ug antibody [1]: 97.2%
BSSL hydrolysis of cholesterol esters, relative value (no antibody = 100%); 0.75 ug antibody [1]: 93.9%
BSSL hydrolysis of cholesterol esters, relative value (no antibody = 100%); 1.5 ug antibody [1]: 95.3%
BSSL hydrolysis of cholesterol esters, relative value (no antibody = 100%); 3.0 ug antibody [1]: 99%
BSSL hydrolysis of cholesterol esters, relative value (no antibody = 100%); 6.0 ug antibody [1]: 90.5%
Kd [2]: 1.2 nM
percentage reduction of b-hBSSL binding to CD14+ monocytes (Biotinylated human BSSL [3]): 61%
Kd [4]: 1.2 nM
BSSL hydrolysis of triglycerides, relative value (no antibody = 100%); 0.19 ug antibody [5]: 109%
BSSL hydrolysis of triglycerides, relative value (no antibody = 100%); 0.38 ug antibody [5]: 123%
BSSL hydrolysis of triglycerides, relative value (no antibody = 100%); 0.75 ug antibody [5]: 129%
BSSL hydrolysis of triglycerides, relative value (no antibody = 100%); 1.5 ug antibody [5]: 120%
BSSL hydrolysis of triglycerides, relative value (no antibody = 100%); 3.0 ug antibody [5]: 99.2%
BSSL hydrolysis of triglycerides, relative value (no antibody = 100%); 6.0 ug antibody [5]: 104%
Kd (Mouse BSSL, recombinant [6]): 111 nM
percentage reduction of b-hBSSL binding to CD14+ monocytes (Biotinylated human BSSL [7]): 52%

B3
Kd (Mouse BSSL, recombinant [8]): 361 nM
Kd [9]: 0.91 nM

B4
IC50 (AS20 scFv): 150 to 200 nM
